From the supplement of paper PMC7877785
± gives the uncertainty stated by the source.

Assay: self-splicing fitness, log relative to wild type (ln ratio); higher = more splicing; Tetrahymena group I intron in knt gene, E. coli kanamycin selection, DiMSum; sequences stand for … in CUCUCU…GGAGGGAAAAGUUAUCAGGCAUGCACCUGGUAGCUAGUCUUUAAACCAAUAGAUUGCAUCGGUUUAAAAGGCAAGACCGUCAAAUUGCGGGAAAGGGGUCAACAGCCGUUCAGUACCAAGUCUCAGGGGAAACUUUGAGAUGGCCUUGCAAAGGGUAUGGUAAUAAGCUGACGGACAUGGUCCUAACCACGCAGCCAAGUCCUAAGUCAACAGAUCUUCUGUUGAUAUGGAUGCAGUUCACAGACUAAAUGUCGGUCGGGGAAGAUGUAUUCUUCUCAUAAGAUAUAGUCGGACCUCUCCUUAAUGGGAGCUAGCGGAUGAAGUGAUGCAACACUGGAGCCGCUGGGAACUAAUUUGUAUGCGAAAGUAUAUUGAUUAGUUUUGGAGUACUCGUGGUCG
In short: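 Library with all eight P1ex-region intron nucleotides randomised, intron inside the knt kanamycin-resistance gene on pET-22b(+), in E. coli BL21(DE3). Cells grew overnight at 37°C or 30°C on LB agar with or without 25 μg/mL kanamycin (plus 100 μg/mL carbenicillin, 50 μM IPTG, 0.2% rhamnose), in six replicate transformations. Pooled colonies were amplicon-sequenced on Illumina HiSeq 2500. DiMSum fitness is the error-weighted combination of wild-type-normalised replicate fold changes, kanamycin versus none.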

| Sequence | self-splicing fitness (ln) (30 °C) | self-splicing fitness (ln) (37 °C) |
| --- | --- | --- |
| AGGGAGCAAUAUUACGAUUC | -3.76 ± 0.35 | -2.41 ± 0.29 |
| AGGGAGCAAUAUUACGCGGU | -3.98 ± 0.21 | -3.05 ± 0.24 |
| AGGGAGCAAUAUUACGCGUC | -3.15 ± 0.29 | -2.51 ± 0.37 |
| AGGGAGCAAUAUUACGGCAU | -3.2 ± 0.2 | -2.46 ± 0.23 |
| AGGGAGCAAUAUUACGGCCA | -2.33 ± 0.33 | -0.91 ± 0.31 |
| AGGGAGCAAUAUUACGGCGA | -3.35 ± 0.4 | -2.62 ± 0.44 |
| AGGGAGCAAUAUUACGGCUC | -2.18 ± 0.24 | – |
| AGGGAGCAAUAUUACGGGAG | -3.56 ± 0.2 | -2.13 ± 0.23 |
| AGGGAGCAAUAUUACGGUAU | – | -0.384 ± 0.39 |
| AGGGAGCAAUAUUACGUAUC | -2.16 ± 0.25 | – |
| AGGGAGCAAUAUUACGUAUU | -2.96 ± 0.18 | -2.15 ± 0.21 |
| AGGGAGCAAUAUUACGUCUC | -1.79 ± 0.32 | -2.54 ± 0.48 |
| AGGGAGCAAUAUUACGUUCA | -1.31 ± 0.18 | -1.49 ± 0.19 |
| AGGGAGCAAUAUUACGUUUU | -2.81 ± 0.21 | -2.22 ± 0.27 |
| AGGUAGCAAUAUUACGAAAA | -2.61 ± 0.031 | -2.01 ± 0.041 |
| AGGUAGCAAUAUUACGAAAU | -2.048 ± 0.018 | -1.19 ± 0.035 |
| AGGUAGCAAUAUUACGAACU | 0.0152 ± 0.016 | 0.016 ± 0.034 |
| AGGUAGCAAUAUUACGAAGC | -3.821 ± 0.036 | -2.3 ± 0.042 |
| AGGUAGCAAUAUUACGAAUG | -3.277 ± 0.026 | -1.83 ± 0.037 |
| AGGUAGCAAUAUUACGAGAC | -3.88 ± 0.039 | -2.69 ± 0.044 |
| AGGUAGCAAUAUUACGAUAA | -1.65 ± 0.018 | -0.626 ± 0.035 |
| AGGUAGCAAUAUUACGCAAU | -1.959 ± 0.017 | -1.03 ± 0.034 |
| AGGUAGCAAUAUUACGCAGU | -2.979 ± 0.021 | -1.68 ± 0.035 |
| AGGUAGCAAUAUUACGCCAC | -3.97 ± 0.058 | -2.98 ± 0.069 |
| AGGUAGCAAUAUUACGCCCU | -3.56 ± 0.048 | -2.45 ± 0.058 |

| Sequence | self-splicing fitness (ln) (30 °C) | self-splicing fitness (ln) (37 °C) |
| --- | --- | --- |
| AGGUAGCAAUAUUACGCGGA | -2.062 ± 0.019 | -1.09 ± 0.033 |
| AGGUAGCAAUAUUACGCUGA | -2.032 ± 0.019 | -1.14 ± 0.034 |
| AGGUAGCAAUAUUACGCUGU | -3.789 ± 0.033 | -2.97 ± 0.043 |
| AGGUAGCAAUAUUACGCUUA | -1.2 ± 0.017 | -0.467 ± 0.034 |
| AGGUAGCAAUAUUACGGAGA | -3.57 ± 0.037 | -2.82 ± 0.043 |
| AGGUAGCAAUAUUACGGAGC | -4.047 ± 0.034 | -2.5 ± 0.04 |
| AGGUAGCAAUAUUACGGAGU | -3.487 ± 0.021 | -1.72 ± 0.034 |
| AGGUAGCAAUAUUACGGGAA | -2.69 ± 0.027 | -2.11 ± 0.038 |
| AGGUAGCAAUAUUACGGGUA | -2.347 ± 0.022 | -1.31 ± 0.034 |
| AGGUAGCAAUAUUACGGUAA | -2.123 ± 0.021 | -1.2 ± 0.034 |
| AGGUAGCAAUAUUACGGUGC | -3.382 ± 0.029 | -1.98 ± 0.038 |
| AGGUAGCAAUAUUACGGUGG | -3.787 ± 0.027 | -2.8 ± 0.04 |
| AGGUAGCAAUAUUACGGUUC | -2.769 ± 0.022 | -1.51 ± 0.036 |
| AGGUAGCAAUAUUACGUCAG | -2.334 ± 0.019 | -1.42 ± 0.035 |
| AGGUAGCAAUAUUACGUCCC | -1.02 ± 0.025 | -0.535 ± 0.042 |
| AGGUAGCAAUAUUACGUCCU | -3.01 ± 0.027 | -2.01 ± 0.041 |
| AGUAAGCAAUAUUACGAAUC | -4.12 ± 0.42 | -2.86 ± 0.34 |
| AGUAAGCAAUAUUACGAAUU | -2.92 ± 0.42 | – |
| AGUAAGCAAUAUUACGACAA | -1.35 ± 0.17 | -0.886 ± 0.17 |
| AGUAAGCAAUAUUACGAGCG | -0.847 ± 0.072 | -0.0455 ± 0.11 |
| AGUAAGCAAUAUUACGAGGC | -2.59 ± 0.34 | – |
| AGUAAGCAAUAUUACGAGGU | -2.56 ± 0.18 | -2.89 ± 0.22 |
| AGUAAGCAAUAUUACGAUAG | -3.75 ± 0.33 | -2.86 ± 0.31 |
| AGUAAGCAAUAUUACGAUGA | -2.3 ± 0.16 | -1.03 ± 0.13 |
| AGUAAGCAAUAUUACGCAGA | -3.22 ± 0.36 | -2.67 ± 0.29 |

| Sequence | self-splicing fitness (ln) (30 °C) | self-splicing fitness (ln) (37 °C) |
| --- | --- | --- |
| AGUAAGCAAUAUUACGCAUC | -4.12 ± 0.29 | -1.48 ± 0.27 |
| AGUAAGCAAUAUUACGCCGA | -1.31 ± 0.45 | -0.709 ± 0.46 |
| AGUAAGCAAUAUUACGCUGG | -3.89 ± 0.23 | -2.39 ± 0.22 |
| AGUAAGCAAUAUUACGCUUA | -3.07 ± 0.16 | -1.44 ± 0.15 |
| AGUAAGCAAUAUUACGGAGC | -2.93 ± 0.37 | – |
| AGUAAGCAAUAUUACGGGUA | -2.7 ± 0.15 | -1.56 ± 0.13 |
| AGUAAGCAAUAUUACGGUCG | -1.95 ± 0.083 | -0.559 ± 0.087 |
| AGUAAGCAAUAUUACGUACC | -0.632 ± 0.16 | 0.366 ± 0.21 |
| AGUAAGCAAUAUUACGUACG | -1.51 ± 0.11 | 0.135 ± 0.14 |
| AGUAAGCAAUAUUACGUCAA | -3.78 ± 0.21 | -2 ± 0.15 |
| AGUAAGCAAUAUUACGUCGU | -2.12 ± 0.13 | -0.496 ± 0.12 |
| AGUAAGCAAUAUUACGUCUC | -3.31 ± 0.25 | -2.96 ± 0.47 |
| AGUAAGCAAUAUUACGUCUG | -3.21 ± 0.17 | -1.49 ± 0.12 |
| AGUAAGCAAUAUUACGUGCG | -1.27 ± 0.088 | -0.396 ± 0.097 |
| AGUAAGCAAUAUUACGUUAG | -1.71 ± 0.33 | – |
| AGUAAGCAAUAUUACGUUGG | -3.59 ± 0.48 | -2.64 ± 0.36 |
| AGUCAGCAAUAUUACGAUUG | -1.38 ± 0.11 | -0.258 ± 0.15 |
| AGUCAGCAAUAUUACGCGAU | -3.56 ± 0.24 | -1.01 ± 0.14 |
| AGUCAGCAAUAUUACGCGGG | -2.8 ± 0.16 | -1.06 ± 0.2 |
| AGUCAGCAAUAUUACGGAGC | -2.57 ± 0.12 | -1.74 ± 0.13 |
| AGUCAGCAAUAUUACGGAGU | -1.63 ± 0.062 | -0.578 ± 0.073 |
| AGUCAGCAAUAUUACGGCAA | -0.287 ± 0.083 | -0.215 ± 0.081 |
| AGUCAGCAAUAUUACGGUAA | -2.02 ± 0.12 | -1.19 ± 0.099 |
| AGUCAGCAAUAUUACGGUUA | -1.15 ± 0.087 | -0.533 ± 0.073 |
| AGUCAGCAAUAUUACGUAAG | -1.61 ± 0.1 | -0.51 ± 0.11 |

| Sequence | self-splicing fitness (ln) (30 °C) | self-splicing fitness (ln) (37 °C) |
| --- | --- | --- |
| AGUCAGCAAUAUUACGUAUG | -3.48 ± 0.18 | -2.43 ± 0.19 |
| AGUCAGCAAUAUUACGUAUU | -1.08 ± 0.079 | -0.181 ± 0.094 |
| AGUCAGCAAUAUUACGUCCU | -0.258 ± 0.1 | -0.279 ± 0.15 |
| AGUCAGCAAUAUUACGUGAU | -1.52 ± 0.077 | -0.719 ± 0.1 |
| AGUCAGCAAUAUUACGUUAC | -2.88 ± 0.16 | -2.36 ± 0.21 |
| AGUGAGCAAUAUUACGACGC | -1.01 ± 0.2 | -0.737 ± 0.29 |
| AGUGAGCAAUAUUACGAGCU | -2.44 ± 0.23 | -1.07 ± 0.5 |
| AGUGAGCAAUAUUACGCACU | -2.97 ± 0.44 | -2.24 ± 0.38 |
| AGUGAGCAAUAUUACGCAUA | -4.2 ± 0.43 | -2.56 ± 0.29 |
| AGUGAGCAAUAUUACGCGCA | -2.29 ± 0.2 | -2.38 ± 0.2 |
| AGUGAGCAAUAUUACGCGGU | -3.93 ± 0.25 | -3.01 ± 0.23 |
| AGUGAGCAAUAUUACGCUAA | – | -2.09 ± 0.26 |
| AGUGAGCAAUAUUACGGAAU | -3.11 ± 0.18 | -2.16 ± 0.13 |
| AGUGAGCAAUAUUACGGACA | -1.09 ± 0.2 | -1.5 ± 0.27 |
| AGUGAGCAAUAUUACGUAAC | -4.68 ± 0.23 | -1.67 ± 0.14 |
| AGUGAGCAAUAUUACGUCGC | -2.66 ± 0.41 | – |
| AGUGAGCAAUAUUACGUGCC | -2.42 ± 0.49 | -1.3 ± 0.38 |
| AGUGAGCAAUAUUACGUUUG | -3.7 ± 0.23 | -2.8 ± 0.24 |
| AGUUAGCAAUAUUACGAAAA | -2.79 ± 0.49 | -1.5 ± 0.32 |
| AGUUAGCAAUAUUACGAACA | -0.687 ± 0.12 | 0.168 ± 0.17 |
| AGUUAGCAAUAUUACGACGG | -0.829 ± 0.15 | -0.189 ± 0.18 |
| AGUUAGCAAUAUUACGAGGG | -4.11 ± 0.38 | -2.06 ± 0.33 |
| AGUUAGCAAUAUUACGCACG | -1.42 ± 0.19 | 0.196 ± 0.22 |
